This is an account of results in patent publication US20220056137A1 (GIGAGEN, published 2022).

In assay [1] the target is T1, PD-L1 expressed on CHO cells (human, UniProt Q9NZQ7 19-290). Put plainly: cell-based or functional assay.
Assay [2] concerns the target T2, human PD-L1 protein (soluble) (human, UniProt Q9NZQ7 19-239).
T2 construct: also called PD-L1 (R&D Systems); His-tagged PD-L1 protein
Put plainly: SPR, mAb captured on anti-human IgG Fc, PD-L1 as analyte.
Protocol: (§1) The surface was then deactivated with 1 M ethanolamine pH 8.5 (Carterra Inc.). Running buffer used for the lawn immobilization was HBS-EPC (10 mM HEPES, 150 mM NaCl, 3 mM EDTA, 0.05% Tween 20, pH 7.4; Teknova).
(§2) The sensor chip was then transferred to a continuous flow microspotter (CFM; Carterra Inc.) for array capturing. The mAb supernatants were diluted 50-fold (3-10 mg/mL final concentration) into HBS-EPC with 1 mg/mL BSA. The samples were each captured twice with 15-minute and 4-minute capture steps on the first and second prints, respectively, to create multiple densities, using a 65 mL/min flow rate. The running buffer in the CFM was also HBS-EPC.
(§3) Next, the sensor chip was loaded onto an SPR reader (MX-96 system; Ibis Technologies) for the kinetic analysis. […] PD-L1 injections were 5 minutes with a 15-minute dissociation at 8 mL/second in a non-regenerative kinetic series. An injection of the goat anti-Human IgG Fc capture antibody at 75 mg/mL was injected at the end of the series to verify the capture level of each mAb. Binding data was double referenced by subtracting an interspot surface and a blank injection and analyzed for ka (on-rate), kd (off-rate), and KD (affinity) using the Kinetic Interaction Tool software (Carterra Inc.).

Assay [3] has as its target T2, human PD-L1 protein (soluble). Described as above. This is another data set of the same source.
Protocol: as §1, §2, §3
A further assay concerns the target T3, cyno PD-L1 (cyno).
T3 construct: Soluble analyte in BLI
Put plainly: BLI (Octet), antibody on AHC biosensor, cyno PD-L1 as analyte.

Another assay deals with T4, rhPD-L1-Fc (human, UniProt Q9NZQ7 19-239, limits assumed).
T4 construct: Recombinant human PD-L1-Fc coated on ELISA plates; not shown: Fc part
Briefly: competition ELISA: plate-bound rhPD-L1-Fc, antibody titrated, competitor rhCD80-His detected.

Assay [4] concerns the target T1, PD-L1 expressed on CHO cells. Briefly: flow cytometry on PD-L1 expressing Flp-In CHO cells.
Protocol: For cell surface binding studies, PD-L1 expressing Flp-In CHO (Thermo Fisher Scientific) cells were generated and mixed at a 50:50 ratio. One million cells were stained with 1 μg of the disclosed anti-PD-L1 recombinant antibodies in 200 μl of MACS Buffer (DPBS with 0.5% bovine serum albumin and 2 mM EDTA) for 30 minutes at 4 C. Cells were then co-stained with anti-human irrelevant target-APC and anti-human IgG Fc-PE antibodies for 30 minutes at 4 C. An anti-human PD-L1 antibody was used as a control for these mixing experiments and cell viability was assessed with DAPI. Flow cytometry analysis was conducted on a BD Influx at the Stanford Shared FACS Facility and data was analyzed using FlowJo.
Assay [5] has as its target T2, human PD-L1 protein (soluble). Briefly: BLI (Octet), antibody on AHC biosensor, PD-L1 as analyte.
Protocol: (§4) For BLI, antibodies were loaded onto an Anti-Human IgG Fc (AHC) biosensor using the Octet Red96 system (ForteBio). Loaded biosensors were dipped into antigen dilutions beginning at 300 nM, with 6 serial dilutions at 1:3. Kinetic analysis was performed using a 1:1 binding model and global fitting.
For assay [6] the target is unchanged. The description is as above. This is another data set of the same source.
Protocol: as §4

T2 sequence (Q9NZQ7 19-239 limits assumed): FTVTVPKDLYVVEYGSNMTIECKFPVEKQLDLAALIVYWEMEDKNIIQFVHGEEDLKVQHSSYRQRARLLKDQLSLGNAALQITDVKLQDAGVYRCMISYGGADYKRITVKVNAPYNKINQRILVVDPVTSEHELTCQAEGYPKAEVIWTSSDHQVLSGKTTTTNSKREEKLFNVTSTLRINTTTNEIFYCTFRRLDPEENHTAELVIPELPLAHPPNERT
T1 sequence (Q9NZQ7 19-290 limits assumed): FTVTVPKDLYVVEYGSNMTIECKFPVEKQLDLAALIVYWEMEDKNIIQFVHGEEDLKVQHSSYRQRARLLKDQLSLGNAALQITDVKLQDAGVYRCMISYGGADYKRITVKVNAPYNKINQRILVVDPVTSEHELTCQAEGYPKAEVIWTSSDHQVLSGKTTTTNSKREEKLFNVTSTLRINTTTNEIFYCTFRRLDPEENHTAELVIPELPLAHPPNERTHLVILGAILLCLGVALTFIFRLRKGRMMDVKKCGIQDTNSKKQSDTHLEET
T4 sequence (Q9NZQ7 19-239 limits assumed): as the sequence (Q9NZQ7 19-239 limits assumed) above
Protocol for cyno PD-L1: as §4
Protocol for rhPD-L1-Fc: Plates were coated with rhPD-L1-Fc and then blocked with 1× PBS with 2% w/v BSA. After blocking a dilution series of the indicated antibody was added to the plate.

B1: antibody A8 (antibody, V domains shown)
VH: QVQLVQSGAEVKKPGASVKVSCKASGYTFTSYGISWVRQAPGQGLEWMGWISAYNGSTNYAQKLQGRVTMTTDTSTSTAYMELRSLRSDDTAVFYCARDDRIAVADYYYYFGMDVWGQGTTVTVSS
VL: DIQMTQSPSSLSASVGDRVTITCRASQGIRNDLGWYQQKPGKAPKRLIYAASSLQSGVPSRFSGSGSGTEFTLTISSLQPEDFATYYCLQHNSYPYTFGQGTKLEIK
notes: Tested as full-length mAb made in CHO cells; also called L8H8
With B1, the “Promega assay antagonist (EC50, ug/mL)” value in assay [1] was found to be 0.621 µg/mL. Binding in assay [2] was characterised by a dissociation constant (Kd) of 22 nM. In assay [3], the Kd is 22.8 nM, the koff was 0.013 s⁻¹ and the kon came out at 570000 M⁻¹ s⁻¹. The Kd with cyno PD-L1 was 18.9 nM. Moreover, the EC50 in the assay with rhPD-L1-Fc turned out to be 0.46 µg/mL.

B2: antibody A22 (antibody, V domains shown)
VH: QVQLVQSGAEVKKPGASVKVSCKASGYTFTSYGISWVRQAPGQGLEWMGWISAYNGNTNYAQKLQGRVTMTTDTSTSTAYMELRSLRSDDTAVYYCARGFYYGSWYFDYWGQGTLVTVSS
VL: DIQMTQSPSSLSASVGDRVTITCRASQGISSWLAWYQQKPEKAPKSLIYAASSLQSGVPSRFSGSGSGTDFTLTISSLQPEDFATYYCQQYNSYPPTVGGGTKVEIK
notes: Tested as full-length mAb made in CHO cells; also called L22H22
Regarding B2, the binding result in assay [4] is given as “binds”. Moreover, the Kd with cyno PD-L1 is 38.5 nM.

B3: antibody A25 (antibody, V domains shown)
VH: QVQLVQSGAEVKKPGASVKVSCKASGFTFTSYDINWVRQATGQGLEWMGWMHPKSGITGYAQKFQGRVTMTRNTSISTAYMELSNLSSEDTAVYFCARYNYVSGSYDYWGQGTLVTVSS
VL: EIVMTQSPATLSLSPGERATLSCWASQSVSSSYLSWYQQKPGQAPRLLIYGASTRATGIPARFSGSGSGTDFTLTISSLQPEDFAVYYCQQDYYLPYTFGQGTKLEIK
notes: Derived from a mutagenesis screen of A1; Tested as full-length antibody; also called L25H25
Consider B3, for which, in assay [1], the “Promega assay antagonist (EC50, ug/mL)” value came to 0.063 µg/mL. This molecule came in with a Kd in assay [5] of 2.4 nM. Also, in assay [6], the Kd was determined as 2.44 nM, the off-rate constant (koff) was found to be 0.000809 s⁻¹ and the kon came to 331000 M⁻¹ s⁻¹. In the assay with rhPD-L1-Fc, this molecule registered an EC50 of 0.26 µg/mL.
